The values that follow come from article doi:10.1101/2021.04.08.438961 (bioRxiv, 2021).

First the molecules themselves.
B1: MinD (natural protein)
chain: MARIIVVTSGKGGVGKTTSSAAIATGLAQKGKKTVVIDFDIGLRNLDLIMGCERRVVYDFVNVIQGDATLNQALIKDKRTENLYILPASQTRDKDALTREGVAKVLDDLKAMDFEFIVCDSPAGIETGALMALYFADEAIITTNPEVSSVRDSDRILGILASKSRRAENGEEPIKEHLLLTRYNPGRVSRGDMLSMEDVLEILRIKLVGVIPEDQSVLRASNQGEPVILDINADAGKAYADTVERLLGEERPFRFIEEEKKGFLKRLFGG
B2: MinD D40A (natural protein)
chain: B1 chain with D40A
B3: MinE (natural protein)
chain: MALLDFFLSRKKNTANIAKERLQIIVAERRRSDAEPHYLPQLRKDILEVICKYVQIDPEMVTVQLEQKDGDISILELNVTLPEAEELK

Numbering of substitutions follows the chain as printed. Names may count otherwise. “And” between values parts separate entries of the source, which are not always exact repeats. Equal entries are not always repeated.

Data set [1] concerns the molecule itself. Nature of the data set: mass-sensitive particle tracking.
Data set [2] addresses B1. Nature of the data set: mass-sensitive particle tracking.

On to B1, for which the “stoichiometry N” value in data set [1] was 2 and > 2 and 3 and 4.

As for B2, the “stoichiometry N” value in data set [1] was 2 and 4.

Turning to B3, in data set [2], the binding result was “binds”.

One may read the stoichiometry N as a count of units in the complex or per binding partner.
